Changes are numbered by the printed parent chain. Numbers in names are those of the source.
B1: FadAc: recombinant active heterogeneous complex of pre-FadA and mFadA (protein)
chain 1: MKKFLLLAVLAVSASAFAATDAASLVGELQALDAEYQNLANQEEARFNEERAQADAARQALAQNEQVYNELSQRAQRLQAEANTRFYKSQYQELASKYEDALKKLEAEMEQQKAVISDFEKIQALRAGN
chain 2: ATDAASLVGELQALDAEYQNLANQEEARFNEERAQADAARQALAQNEQVYNELSQRAQRLQAEANTRFYKSQYQELASKYEDALKKLEAEMEQQKAVISDFEKIQALRAGN
B2: mFadA: cleaved mature form of FadA, 111 aa residues without the signal peptide (protein)
chain: B1 chain 2
B3: L76A (protein)
chain: B1 chain 2 with L76A
B4: S71A (protein)
chain 1: B1 chain 1
chain 2: B1 chain 2 with S71A
B5: L14A (protein)
chain: B1 chain 2 with L14A

Columns and labels:
[1] = test system: Fn binding to human CRC cells DLD1; test: Cell culture attachment assay, DLD1; type: cell-based; conditions: 50 μg FadAc pre-incubated with DLD1 for 45 min
[2] = Thioflavin-T binding assay; conditions: 10 μM Thioflavin-T; for Thioflavin-T binding in the presence of 0.1% SDS: FadA proteins 0.8 mg/ml; for Thioflavin-T binding: without SDS, 10 min
Protocol: (§1) FIG. 2A-2G. Pre-FadA as a key component of amyloid-like FadA. 2A. Single-letter amino acid (aa) sequence of FadA (SEQ ID NO:28). The intact pre-FadA consists of 129 aa, with the first 18-aa (top row) constitute the signal peptide. The remaining 111 aa constitute mFadA. The residues that are replaced in the mutant proteins used in this study are shown in red. 2B. Analysis of detergent resistant recombinant FadA polymers expressed in E. coli. An aliquot of 50 μg detergent-resistant pellets prepared from E. coli BL21(DE3) carrying the cloning vector pET21(b), pYWH417-6 (p_FadAc), or pYWH418 (p_mFadA) were analyzed by SDD-AGE, followed by Western blot analysis. FadA polymers were only detected in E. coli expressing FadAc, but not in mFadA or the vector control. 2C. Reactivity of recombinant FadA and its variants with anti-amyloid fibril antibody OC. A total of 10 μg each of recombinant protein mFadA, FadAc, FadA-L-9A, FadA-L14A, FadA-S71A, and FadA-L76A purified from E. coli was slot-blotted onto nitrocellulose and incubated with polyclonal OC antibody at 1:5,000 dilution. Amyloid-like recombinant Rim4 (Berchowitz et al., 2015) was used as a positive control and histone H1 was used as a negative control. Ponceau stain (pink color) is shown as a loading control. 2D. Thioflavin-T binding assay. FadA proteins at indicated concentrations were incubated with 10 μM Thioflavin-T at room temperature for 10 min. The fluorescent intensity was measured at excitation wavelength of 440 nm and emission wavelength of 500 nm. The experiment was performed in duplicate and repeated three times. *p<0.05, **p<0.01, ***p<0.001 (compared to BSA, t-test). 2E. Thioflavin-T binding assay in the presence of 0.1% SDS. FadA proteins (0.8 mg/ml) were incubated with 10 μM Thioflavin-T at room temperature for 10 min. The fluorescent intensity was measured at excitation wavelength of 440 nm and emission wavelength of 500 nm. The experiment was performed in duplicate and repeated three times. *p<0.05, **p<0.01 (compared to BSA, t-test). 2F. Western blot analysis of Fn12230 (Fn), fadA-deletion mutant US1 (ΔfadA) and spontaneous mutant lam following SDS-PAGE. A total of 400 μl of each culture grown to OD600 of 1.0 was pelleted and loaded onto 12% SDS-PAGE. FadA protein was detected using anti-FadA mAb 7H7 at 1:4,000 dilution. […] 2G. Analysis of amyloid-like FadA produced by Fn 23726 and its Δfap2 mutant. An aliquot of 50 μg detergent-resistant pellets was loaded onto each lane, followed by SDD-AGE and Western blot analysis as described above.
Thioflavin-T binding assay. Thioflavin-T assay was conducted as previously described (Tukel et al., 2009). A mixture of 50 μl of FadA proteins and 50 μl of 10 μM Thioflavin-T was added to a black 96-well plate and incubated for 10 min at room temperature. After incubation, the fluorescence intensity was determined using a SpectraMax M5 microplate reader at excitation wavelength of 440 nm and emission wavelength of 500 nm. For SDS stability test, the FadA proteins were pre-incubated in 0.1% SDS for 30 min at room temperature, followed by Thioflavin-T binding assay as described above.

[3] = test system: anti-amyloid fibril antibody OC; test: Slot blot assay with anti-amyloid fibril antibody OC; type: binding; conditions: 10 μg recombinant protein; OC at 1:5,000 dilution
Protocol: as §1
(§2) Slot blot assay. Ten micrograms each of purified recombinant protein was slot-blotted onto nitrocellulose membrane (BioRad) and assayed for reactivity with polyclonal anti-amyloid fibril antibodies OC (α-amyloid fibril OC, Sigma-Aldrich CAT #AB2286) at 1:5,000 dilution and goat-anti-rabbit IgG (GE Healthcare) at 1:10,000 dilution, or polyclonal anti-amyloid oligomer antibody A11 (α-oligomer A11 at 1:5,000 dilution, ThermoFisher Scientific CAT #AHB0052) and goat-anti-rabbit IgG at 1:10,000 dilution, followed by detection with ECL Prime (GE Healthcare). Amyloid-like recombinant Rim4 was used as a positive control (Berchowitz et al., 2015) and histone H1 was used as a negative control. Loading was assessed by Ponceau stain (Sigma CAT #P7170).

[4] = Circular dichroism (CD) test; type: physicochemical; conditions: wavelength range 190-250 nm; 0.2 mg/ml protein
Protocol: Circular dichroism (CD) test. CD was used to evaluate the secondary structure of FadA and its mutants. One hundred microliter of 0.2 mg/ml purified FadA was analyzed by Chirascan V100 Spectrometer using a 1 mm path-length fused quartz cell. The measurements are an average of three scans for each sample, captured at a scan rate of 1 sec., bandwidth and step size of 1 nm, over a wavelength range of 190-250 nm. CD spectra were recorded and analyzed with BestSel server (see www at bestsel.elte.hu/).

[5] = test system: anti-amyloid oligomer antibody A11; test: Slot blot assay with anti-amyloid oligomer antibody A11; type: binding; conditions: 10 μg recombinant protein; A11 at 1:5,000 dilution
Protocol: FIG. 8A-8C. 8A. SDS-PAGE analysis of recombinant FadAc and its variants. The proteins were purified as previously described (Xu et al., 2007). Approximately 2.5 μg of each purified protein were loaded onto 12% SDS-PAGE. Following electrophoresis, the gel was stained with Coomassie Blue G-250. 8B. Reactivities of recombinant FadA and its variants with anti-amyloid oligomer antibody A11. A total of 10 μg each of recombinant protein mFadA, FadAc, FadA-L-9A, FadA-L14A, FadA-S71A, and FadA-L76A purified from E. coli was slot-blotted onto nitrocellulose and incubated with polyclonal anti-amyloid oligomer antibody A11 at 1:5,000 dilution. Amyloid-like recombinant Rim4 (Berchowitz et al., 2015) was used as a positive control and histone H1 was used as a negative control. Ponceau stain (pink color) is shown as a loading control. 8C. Western blot analysis of wild-type Fn 23726 (1) and mutants Δfap2 (2) using anti-FadA mAb 7H7. The bottom panel is Coomassie blue stain for loading control.
as §2

[6] = SDD-AGE and Western blot of detergent-resistant polymers; type: physicochemical; conditions: expressed in E. coli; SDD-AGE, Western blot with mAb 7H7
Protocol: FIG. 2A-2G. Pre-FadA as a key component of amyloid-like FadA. 2A. Single-letter amino acid (aa) sequence of FadA (SEQ ID NO:28). The intact pre-FadA consists of 129 aa, with the first 18-aa (top row) constitute the signal peptide. The remaining 111 aa constitute mFadA. The residues that are replaced in the mutant proteins used in this study are shown in red. 2B. Analysis of detergent resistant recombinant FadA polymers expressed in E. coli. An aliquot of 50 μg detergent-resistant pellets prepared from E. coli BL21(DE3) carrying the cloning vector pET21(b), pYWH417-6 (p_FadAc), or pYWH418 (p_mFadA) were analyzed by SDD-AGE, followed by Western blot analysis. FadA polymers were only detected in E. coli expressing FadAc, but not in mFadA or the vector control. 2C. Reactivity of recombinant FadA and its variants with anti-amyloid fibril antibody OC. A total of 10 μg each of recombinant protein mFadA, FadAc, FadA-L-9A, FadA-L14A, FadA-S71A, and FadA-L76A purified from E. coli was slot-blotted onto nitrocellulose and incubated with polyclonal OC antibody at 1:5,000 dilution. […] The fluorescent intensity was measured at excitation wavelength of 440 nm and emission wavelength of 500 nm. […] The fluorescent intensity was measured at excitation wavelength of 440 nm and emission wavelength of 500 nm. […] FadA protein was detected using anti-FadA mAb 7H7 at 1:4,000 dilution. […]

[7] = test system: HCT116 xenograft tumors; conditions: shown previously (Rubinstein et al., 2013); cited from earlier work

| Molecule | inhibition of Fn binding to DLD1 [1] | Thioflavin-T binding in the presence of 0.1% SDS [2] | reactivity with anti-amyloid fibril antibody OC [3] | α helix (%) [4] [%] | β strand (%) [4] [%] | reactivity with anti-amyloid oligomer antibody A11 [5] | formation of detergent-resistant polymers [6] | stimulation of xenograft tumor growth [7] | Thioflavin-T binding [2] |
| --- | --- | --- | --- | --- | --- | --- | --- | --- | --- |
| B1 | effectively inhibited | bound Thioflavin-T | reacted | 47.2 | 9.6 | reacted | formed detergent-resistant polymers | stimulated xenograft tumor growth |  |
| B2 |  | did not bind Thioflavin-T | not with the anti-fibril OC | 27.9 | 18.8 | reacted weakly | did not form polymers | not | bound more Thioflavin-T than FadAc |
| B3 |  |  | did not react |  |  | did not react |  |  |  |
| B4 |  | bound Thioflavin-T | reacted | 49.1 | 8 | reacted |  |  |  |
| B5 |  |  | did not react | 44.2 | 11.6 | did not react |  |  | did not bind Thioflavin-T |

Source: patent US12030929B2, “Fusobacterium nucleatum amyloid-like FadA for diagnosis and treatment of Fn-mediated pathogenesis” (The Trustees of Columbia University in the City of New York, priority 2021, dated 2024)
